# From the supplement of paper PMC9170038
# System: MS2 coat protein
# Assay: apparent KD of MS2 coat protein; higher = weaker reporter binding
# Settings: Eterna round: R107
# Outline: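 Each design's apparent KD comes from the median of binding-curve fits to its normalised clusters. Those clusters carried RNA switches transcribed on-chip from Illumina sequencing clusters. SNAP-549-labelled MS2 coat protein was titrated onto them in twofold steps (0.7 or 1.5 nM to 3 µM; per step 0.8–1.5 h down to 10–20 min). Conditions were 100 mM Tris-HCl pH 7.5, 80 mM KCl, 4 mM MgCl2, without or with constant ligand.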
# [1] = input ligand: theophylline 20 uM
# [2] = input ligand: theophylline 2 mM
# [3] = input ligand: tryptophan 2.4 mM
Sequence,apparent KD of MS2 coat protein (input ligand: arginine 13.2 mM) [nM],apparent KD of MS2 coat protein (input ligand: none) [nM],apparent KD of MS2 coat protein [1] [nM],apparent KD of MS2 coat protein [2] [nM],apparent KD of MS2 coat protein [3] [nM]
GUAAUGAUAAGAAGGAGCGUCGAAAAUGGGUAAACAUGAGGAUCACCCAUGUAAAGGGAACGACAGGUAGGUCGCUUAUUAUUAC [AstromonsSSArgB#21],126,207,356,203,210
GUACAUGAGGAUCACCCAUGUAUAGUUGAAGGAGCGACCAGAGGGUCAGGUAGGUCGCAGCACAUGAGGUAAGCCCGUGUAUGCU [#1 Exclusion - Arginine A Attempt #19 (Inspired by Pi)],30.7,50.6,59.1,35.1,32
GUACGAGUUGAAUGUGAGACUGGCGUGGAAGGAGCGCACGGAGGUGCAGGUAGGUCGCCACAUGAGGAUCACCCAUGUCGGCUAG [XARG-A 23],22.1,23.2,27.3,29,25.9
GUAGCGACGGCGGCCGCCACUCGCACGUGAGGGUAGACCAACCUUCACAUGAGGAUCACCCAUGUGAGGACCGGGCUGUCGCUAC [#15 Exclusion Tryptophan B],17,23.8,30.4,25.4,46.4
GUAUACAUGAGGAUCACCCAUGUACCAGAAGGAGCGCUGGAAACAGCAGGUAGGUCGCUGGUAGGUCCUCUAUCUAGACGUUCGG [EAA NP+V+V2 #4],49.9,168,191,201,139
GUAUACAUGAGGAUCACCCAUGUACCAGAAGGAGCGCUGGAAACAGCAGGUAGGUCGCUGGUAGGUCCUCUAUCUAGACGUUCUA [EAA NP+V+V2 #5],28.1,176,214,195,79
GUAUCUAUGUGAAAUAGAUAUAUAACUGAAGGAGCGUCAUUAAGGACAGGUAGGUCGCAGAGCACCUGAGGAUCACCCAGGUAGG [Arg A SS s1],27,25.7,27,31.6,27.2
GUAUGAGUUGACUGUGAGACUGGCGUGGAAGGAGCGCACGGAGGUGCAGGUAGGUCGCCACAUGAGGAUCACCCAUGUCAGGCCG [Ceedtila],32.4,38,56.4,111,53
GUAUGGAAACAUACUAUGGUAUCGUGAGAUACCAGUACAGAAAUGUACCCUUGGCAGCUCGCGCAUACAUGAGGAUCACCCAUGU [Ex Theophylline A 10],16.4,,25,,19.5
GUAUUAAGAAAACUUGAUACAGUGGGUGAACGAGGACCGGUACGGCCGCCACUCGGACAUGAGGAUCACCCAUGUCCAUGUGAAA [AstrosExyTryA#11],17.4,19.1,18.6,17.2,37.7
GUCACACAGUAGGAUACCAGCGUGGCUUAUCCCUGAUCGUACAUGAGGAUCACCCAUGUCCGCCCUUGGCAGCCUCCUGCUCGGA [theeternabot_exclusion_MS2_Theo_B_33],12.4,,17.7,,11.9
GUCGCUGAGGGAAGGAGCGUGAAGACAUGAGGAUCACCCAUGUAGAGGCGCCGAAGGCGUUCGCAGGUAGGUCGCCCUCAGUGAA [#1 Same State - Arginine B Attempt #25 (HarryS)],12.4,14.1,22.1,16.1,15.1
GUCUCUGGGAGAAGGAGCGUGAAGACAUGAGGAUCACCCAUGUAGAGGCGCCGACGGCGUUCGCAGGUAGGUCGCUCCCAGAGAC [#1 Same State - Arginine B Attempt #18 (HarryS)],18.9,23.9,44.5,110,14
GUGAGGUUUGAUGAUACCAGAUGUGGUGGGAACAUGAGGAUCACCCAUGUUGUGAAACAGGUCCCUUGGCAGCAUGAGAGAGCUU [TheoB-ms2@32],30.5,,89.3,,52.7
GUGGGACAUGAGGAUCACCCAUGUGACGAUACCAGUCAAUUGAUGGACCCUUGGCAGCGUUGGUAUUGCGGGUAGGCGAGAUAAG [theeternabot_sameState_MS2_Theo_A_3],21.4,,60.2,,40.4
GUUUUCAAGUCGGCCGCCACUGAUACAAUCCUCACCGGUUCACAUGAGGAUCACCCAUGUUCGCUCAGGACCGGGACCUUCUGUG [theeternabot_exclusion_MS2_Trp_B_3],77.4,,141,142,
UAAAACAUGAGGAUCACCCAUGUAAUUGAUACCAGAGUGAUGAUCCUCCCUUGGCAGCAAAACGCUGAUUGGAAACAAUCAGCGA [Mat - Same State Theophlline A - Mod of Eli - D25],50.1,,102,,46.8
